US20210018508A1 (PIERRE FABRE MEDICAMENT, published 2021)

Target: T1, recombinant human insulin receptor (human, UniProt P06213-2 28-944, limits assumed)
T1 construct: also called rhIR; human IR
Assay: direct ELISA, rhIR coated at 1 µg/ml, hybridoma supernatant, anti-mouse IgG-HRP detection
Description: Further characterizations of the 816C12 antibody were then performed using hybridoma supernatant such as rhIGF-1R or rmIGF-1R or rhIR ELISA. In all direct ELISAs, proteins of interest were immobilized (1 μg/ml) to the bottom of each well. After saturation, hybridoma supernatants were added to the wells. After a 1-hour incubation period and a washing step, a solution of goat anti-mouse IgG—HRP labelled polyclonal antibody was used for detection, prior to the addition of the TMB substrate. The reaction was stopped with a 1M […] solution before reading the OD with a spectrophotometer at a 450 nm wavelength.

T1 sequence (P06213 other isoform, or with tags, fused parts or gaps limits assumed): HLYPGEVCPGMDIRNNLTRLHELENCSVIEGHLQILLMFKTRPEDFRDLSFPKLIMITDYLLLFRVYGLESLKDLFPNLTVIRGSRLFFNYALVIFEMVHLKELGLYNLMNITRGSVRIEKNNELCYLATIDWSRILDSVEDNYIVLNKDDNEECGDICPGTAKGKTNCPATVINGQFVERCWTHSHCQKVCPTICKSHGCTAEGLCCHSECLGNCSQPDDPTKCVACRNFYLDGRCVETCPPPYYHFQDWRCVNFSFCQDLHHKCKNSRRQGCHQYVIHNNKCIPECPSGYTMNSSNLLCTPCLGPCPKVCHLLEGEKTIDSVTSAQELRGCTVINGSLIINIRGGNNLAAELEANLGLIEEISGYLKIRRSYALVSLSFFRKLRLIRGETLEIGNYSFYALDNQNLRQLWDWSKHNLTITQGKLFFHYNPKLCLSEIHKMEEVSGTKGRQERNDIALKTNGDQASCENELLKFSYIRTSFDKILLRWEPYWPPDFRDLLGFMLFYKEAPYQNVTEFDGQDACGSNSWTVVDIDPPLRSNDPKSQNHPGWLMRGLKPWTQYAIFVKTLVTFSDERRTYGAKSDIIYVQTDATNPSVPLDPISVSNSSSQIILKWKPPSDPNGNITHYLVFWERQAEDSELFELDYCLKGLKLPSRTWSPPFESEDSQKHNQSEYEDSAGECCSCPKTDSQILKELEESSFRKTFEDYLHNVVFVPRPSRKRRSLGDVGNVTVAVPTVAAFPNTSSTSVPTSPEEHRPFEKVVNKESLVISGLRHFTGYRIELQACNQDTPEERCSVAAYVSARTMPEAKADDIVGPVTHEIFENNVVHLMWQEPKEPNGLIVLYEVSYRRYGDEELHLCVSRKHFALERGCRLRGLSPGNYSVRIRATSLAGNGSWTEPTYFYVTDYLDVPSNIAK

binding result: no binding (tested: 5 µg/ml)
B1: 816C12 anti-IGF-1R monoclonal antibody (antibody, V domains shown)
VH: EVQLQQSGPELVKPGASVKMSCKASGHTFTSYVLHWMKRKPGQGLEWIGYINPHNDVTKYNENFKGKATLTSDKYSSTVYMEVSSLTSEDSAVYYCVSTAYYGNGRYFDVWGAGTTVTVSS
VL: DIQMTQTTSSLSASLGDRVTISCRASQDINNYLNWYQQKPDGTVKLLIYYTSRLHSGVSSRFSGSGSGTDYSLTISNLEQEDIATYFCQQGNTLPWTFGGGTKLEIK
notes: Murine monoclonal antibody from a Balb/C hybridoma; It was used as hybridoma supernatant in the ELISAs and at 5 ug/ml in IHC; also called I-4894; antibody secreted by hybridoma CNCM I-4894
